Assay results as given in US9029508 (dated 2015).

Target: DLL4 (human, UniProt Q9NR61)
Experiment: ELISA

Sequence of DLL4 (Q9NR61 27-524): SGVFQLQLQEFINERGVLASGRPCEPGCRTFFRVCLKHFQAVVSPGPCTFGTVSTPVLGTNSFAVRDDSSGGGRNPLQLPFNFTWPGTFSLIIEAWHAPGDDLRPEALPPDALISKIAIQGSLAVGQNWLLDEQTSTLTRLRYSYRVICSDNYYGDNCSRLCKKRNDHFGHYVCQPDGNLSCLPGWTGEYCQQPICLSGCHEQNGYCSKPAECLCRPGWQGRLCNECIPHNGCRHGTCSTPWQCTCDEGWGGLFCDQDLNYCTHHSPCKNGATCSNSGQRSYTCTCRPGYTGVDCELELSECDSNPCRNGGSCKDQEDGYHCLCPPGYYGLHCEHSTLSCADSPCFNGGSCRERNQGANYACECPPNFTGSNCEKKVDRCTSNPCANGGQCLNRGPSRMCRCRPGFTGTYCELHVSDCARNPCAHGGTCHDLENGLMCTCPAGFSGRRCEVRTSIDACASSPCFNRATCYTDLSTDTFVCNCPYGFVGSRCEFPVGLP

Binder | EC50
DVD519 DLL4 arm (antibody, V domains shown, DVD-Ig outer) VH: EVQLQQSGPELEKPGASVKISCKASGYSFTGYNMNWVKQSNGKSLEWIGNIDPYFGGTNYNQKFKGKATLTVDKSSSTAYMQLKSLTSEDSAVYYCARNYDYDGGCFDYWGQGTTLTVSS VL: QAVVTQESALTTSPGETVTLTCRSSTGAVTTSNYANWVQEKPDHLFTGLIGGTNNRAPGVPARFSGSLIGDKAALTITGAQTEDEAIYFCALWYSNHWVFGGGTKLTVLG | 1.53 nM
DVD512 DLL4 arm (antibody, V domains shown, DVD-Ig inner) VH: EVQLQQSGPELEKPGASVKISCKASGYSFTGYNMNWVKQSNGKSLEWIGNIDPYFGGTNYNQKFKGKATLTVDKSSSTAYMQLKSLTSEDSAVYYCARNYDYDGGCFDYWGQGTTLTVSS VL: QAVVTQESALTTSPGETVTLTCRSSTGAVTTSNYANWVQEKPDHLFTGLIGGTNNRAPGVPARFSGSLIGDKAALTITGAQTEDEAIYFCALWYSNHWVFGGGTKLTVLG | 1.71 nM
DVD515 DLL4 arm (antibody, V domains shown, DVD-Ig outer) VH: EVQLQQSGPELEKPGASVKISCKASGYSFTGYNMNWVKQSNGKSLEWIGNIDPYFGGTNYNQKFKGKATLTVDKSSSTAYMQLKSLTSEDSAVYYCARNYDYDGGCFDYWGQGTTLTVSS VL: QAVVTQESALTTSPGETVTLTCRSSTGAVTTSNYANWVQEKPDHLFTGLIGGTNNRAPGVPARFSGSLIGDKAALTITGAQTEDEAIYFCALWYSNHWVFGGGTKLTVLG | 0.2 nM
DVD521 DLL4 arm (antibody, V domains shown, DVD-Ig outer) VH: EVQLQQSGPELEKPGASVKISCKASGYSFTGYNMNWVKQSNGKSLEWIGNIDPYFGGTNYNQKFKGKATLTVDKSSSTAYMQLKSLTSEDSAVYYCARNYDYDGGCFDYWGQGTTLTVSS VL: QAVVTQESALTTSPGETVTLTCRSSTGAVTTSNYANWVQEKPDHLFTGLIGGTNNRAPGVPARFSGSLIGDKAALTITGAQTEDEAIYFCALWYSNHWVFGGGTKLTVLG | 0.26 nM
DVD529 DLL4 arm (antibody, V domains shown, DVD-Ig outer) VH: EVQLQQSGPELEKPGASVKISCKASGYSFTGYNMNWVKQSNGKSLEWIGNIDPYFGGTNYNQKFKGKATLTVDKSSSTAYMQLKSLTSEDSAVYYCARNYDYDGGCFDYWGQGTTLTVSS VL: QAVVTQESALTTSPGETVTLTCRSSTGAVTTSNYANWVQEKPDHLFTGLIGGTNNRAPGVPARFSGSLIGDKAALTITGAQTEDEAIYFCALWYSNHWVFGGGTKLTVLG | 0.1 nM
DVD458 DLL4 arm (antibody, V domains shown, DVD-Ig inner) VH: QVQLVQSGAEVKKPGASVKISCKASGYSFTAYYIHWVKQAPGQGLEWIGYISSYNGATNYNQKFKGRVTFTTDTSTSTAYMELRSLRSDDTAVYYCARDYDYDVGMDYWGQGTLVTVSS VL: DIVMTQSPDSLAVSLGERATISCRASESVDNYGISFMKWFQQKPGQPPKLLIYAASNQGSGVPDRFSGSGSGTDFTLTISSLQAEDVAVYYCQQSKEVPWTFGGGTKVEIKR | 1.54 nM
DVD461 DLL4 arm (antibody, V domains shown, DVD-Ig outer) VH: QVQLVQSGAEVKKPGASVKISCKASGYSFTAYYIHWVKQAPGQGLEWIGYISSYNGATNYNQKFKGRVTFTTDTSTSTAYMELRSLRSDDTAVYYCARDYDYDVGMDYWGQGTLVTVSS VL: DIVMTQSPDSLAVSLGERATISCRASESVDNYGISFMKWFQQKPGQPPKLLIYAASNQGSGVPDRFSGSGSGTDFTLTISSLQAEDVAVYYCQQSKEVPWTFGGGTKVEIKR | 0.52 nM
DVD452 DLL4 arm (antibody, V domains shown, DVD-Ig inner) VH: QVQLVQSGAEVKKPGASVKISCKASGYSFTAYYIHWVKQAPGQGLEWIGYISSYNGATNYNQKFKGRVTFTTDTSTSTAYMELRSLRSDDTAVYYCARDYDYDVGMDYWGQGTLVTVSS VL: DIVMTQSPDSLAVSLGERATISCRASESVDNYGISFMKWFQQKPGQPPKLLIYAASNQGSGVPDRFSGSGSGTDFTLTISSLQAEDVAVYYCQQSKEVPWTFGGGTKVEIKR | 0.34 nM
DVD464 DLL4 arm (antibody, V domains shown, DVD-Ig inner) VH: QVQLVQSGAEVKKPGASVKISCKASGYSFTAYYIHWVKQAPGQGLEWIGYISSYNGATNYNQKFKGRVTFTTDTSTSTAYMELRSLRSDDTAVYYCARDYDYDVGMDYWGQGTLVTVSS VL: DIVMTQSPDSLAVSLGERATISCRASESVDNYGISFMKWFQQKPGQPPKLLIYAASNQGSGVPDRFSGSGSGTDFTLTISSLQAEDVAVYYCQQSKEVPWTFGGGTKVEIKR | 0.8 nM
DVD460 DLL4 arm (antibody, V domains shown, DVD-Ig inner) VH: QVQLVQSGAEVKKPGASVKISCKASGYSFTAYYIHWVKQAPGQGLEWIGYISSYNGATNYNQKFKGRVTFTTDTSTSTAYMELRSLRSDDTAVYYCARDYDYDVGMDYWGQGTLVTVSS VL: DIVMTQSPDSLAVSLGERATISCRASESVDNYGISFMKWFQQKPGQPPKLLIYAASNQGSGVPDRFSGSGSGTDFTLTISSLQAEDVAVYYCQQSKEVPWTFGGGTKVEIKR | 0.64 nM
DVD445 DLL4 arm (antibody, V domains shown, DVD-Ig outer) VH: QVQLVQSGAEVKKPGASVKISCKASGYSFTAYYIHWVKQAPGQGLEWIGYISSYNGATNYNQKFKGRVTFTTDTSTSTAYMELRSLRSDDTAVYYCARDYDYDVGMDYWGQGTLVTVSS VL: DIVMTQSPDSLAVSLGERATISCRASESVDNYGISFMKWFQQKPGQPPKLLIYAASNQGSGVPDRFSGSGSGTDFTLTISSLQAEDVAVYYCQQSKEVPWTFGGGTKVEIKR | 0.17 nM
DVD497 DLL4 arm (antibody, V domains shown, DVD-Ig outer) VH: EVQLQQSGPELVKPGASVKMSCKASGYTFTSYVINWVKQKPGQGLEWIGLINPYNDGTKYNEKFKVKATLTSDKSSSTAYMELSSLTSEDSAVYYCASYYYGSRYYFDYWGQGTTLTVSS VL: DIQMTQSSSYLSVSLGGRVTITCKASDHINNWLAWYQQKPGNAPRLLISGATSLETGVPSRFSGSGSGKDYTLSITSLQTEDVATYYCQQYWSIPLTFGAGTKLELKR | 0.53 nM
DVD489 DLL4 arm (antibody, V domains shown, DVD-Ig outer) VH: EVQLQQSGPELVKPGASVKMSCKASGYTFTSYVINWVKQKPGQGLEWIGLINPYNDGTKYNEKFKVKATLTSDKSSSTAYMELSSLTSEDSAVYYCASYYYGSRYYFDYWGQGTTLTVSS VL: DIQMTQSSSYLSVSLGGRVTITCKASDHINNWLAWYQQKPGNAPRLLISGATSLETGVPSRFSGSGSGKDYTLSITSLQTEDVATYYCQQYWSIPLTFGAGTKLELKR | 0.62 nM
DVD509 DLL4 arm (antibody, V domains shown, DVD-Ig outer) VH: EVQLQQSGPELVKPGASVKMSCKASGYTFTSYVINWVKQKPGQGLEWIGLINPYNDGTKYNEKFKVKATLTSDKSSSTAYMELSSLTSEDSAVYYCASYYYGSRYYFDYWGQGTTLTVSS VL: DIQMTQSSSYLSVSLGGRVTITCKASDHINNWLAWYQQKPGNAPRLLISGATSLETGVPSRFSGSGSGKDYTLSITSLQTEDVATYYCQQYWSIPLTFGAGTKLELKR | 0.21 nM
DVD487 DLL4 arm (antibody, V domains shown, DVD-Ig outer) VH: EVQLQQSGPELVKPGASVKMSCKASGYTFTSYVINWVKQKPGQGLEWIGLINPYNDGTKYNEKFKVKATLTSDKSSSTAYMELSSLTSEDSAVYYCASYYYGSRYYFDYWGQGTTLTVSS VL: DIQMTQSSSYLSVSLGGRVTITCKASDHINNWLAWYQQKPGNAPRLLISGATSLETGVPSRFSGSGSGKDYTLSITSLQTEDVATYYCQQYWSIPLTFGAGTKLELKR | 0.14 nM
DVD486 DLL4 arm (antibody, DVD-Ig inner) chain 1: EVQLVESGGGLVQPGGSLRLSCAASGFTFTDNWISWVRQAPGKGLEWVGYISPNSGFTYYADSVKGRFTISADTSKNTAYLQMNSLRAEDTAVYYCARDNFGGYFDYWGQGTLVTVSS chain 2: DIQMTQSPSSLSASVGDRVTITCRASQDVSTAVAWYQQKPGKAPKLLIYSASFLYSGVPSRFSGSGSGTDFTLTISSLQPEDFATTYYCQQSYTGTVTFGQGTKVEIKR | 0.59 nM
DVD477 DLL4 arm (antibody, DVD-Ig outer) chain 1: EVQLVESGGGLVQPGGSLRLSCAASGFTFTDNWISWVRQAPGKGLEWVGYISPNSGFTYYADSVKGRFTISADTSKNTAYLQMNSLRAEDTAVYYCARDNFGGYFDYWGQGTLVTVSS chain 2: DIQMTQSPSSLSASVGDRVTITCRASQDVSTAVAWYQQKPGKAPKLLIYSASFLYSGVPSRFSGSGSGTDFTLTISSLQPEDFATTYYCQQSYTGTVTFGQGTKVEIKR | 0.69 nM
DVD468 DLL4 arm (antibody, DVD-Ig inner) chain 1: EVQLVESGGGLVQPGGSLRLSCAASGFTFTDNWISWVRQAPGKGLEWVGYISPNSGFTYYADSVKGRFTISADTSKNTAYLQMNSLRAEDTAVYYCARDNFGGYFDYWGQGTLVTVSS chain 2: DIQMTQSPSSLSASVGDRVTITCRASQDVSTAVAWYQQKPGKAPKLLIYSASFLYSGVPSRFSGSGSGTDFTLTISSLQPEDFATTYYCQQSYTGTVTFGQGTKVEIKR | 2.28 nM
DVD470 DLL4 arm (antibody, DVD-Ig inner) chain 1: EVQLVESGGGLVQPGGSLRLSCAASGFTFTDNWISWVRQAPGKGLEWVGYISPNSGFTYYADSVKGRFTISADTSKNTAYLQMNSLRAEDTAVYYCARDNFGGYFDYWGQGTLVTVSS chain 2: DIQMTQSPSSLSASVGDRVTITCRASQDVSTAVAWYQQKPGKAPKLLIYSASFLYSGVPSRFSGSGSGTDFTLTISSLQPEDFATTYYCQQSYTGTVTFGQGTKVEIKR | 0.19 nM
DVD484 DLL4 arm (antibody, DVD-Ig inner) chain 1: EVQLVESGGGLVQPGGSLRLSCAASGFTFTDNWISWVRQAPGKGLEWVGYISPNSGFTYYADSVKGRFTISADTSKNTAYLQMNSLRAEDTAVYYCARDNFGGYFDYWGQGTLVTVSS chain 2: DIQMTQSPSSLSASVGDRVTITCRASQDVSTAVAWYQQKPGKAPKLLIYSASFLYSGVPSRFSGSGSGTDFTLTISSLQPEDFATTYYCQQSYTGTVTFGQGTKVEIKR | 1.75 nM
DVD467 DLL4 arm (antibody, DVD-Ig outer) chain 1: EVQLVESGGGLVQPGGSLRLSCAASGFTFTDNWISWVRQAPGKGLEWVGYISPNSGFTYYADSVKGRFTISADTSKNTAYLQMNSLRAEDTAVYYCARDNFGGYFDYWGQGTLVTVSS chain 2: DIQMTQSPSSLSASVGDRVTITCRASQDVSTAVAWYQQKPGKAPKLLIYSASFLYSGVPSRFSGSGSGTDFTLTISSLQPEDFATTYYCQQSYTGTVTFGQGTKVEIKR | 0.54 nM
DVD485 DLL4 arm (antibody, DVD-Ig outer) chain 1: EVQLVESGGGLVQPGGSLRLSCAASGFTFTDNWISWVRQAPGKGLEWVGYISPNSGFTYYADSVKGRFTISADTSKNTAYLQMNSLRAEDTAVYYCARDNFGGYFDYWGQGTLVTVSS chain 2: DIQMTQSPSSLSASVGDRVTITCRASQDVSTAVAWYQQKPGKAPKLLIYSASFLYSGVPSRFSGSGSGTDFTLTISSLQPEDFATTYYCQQSYTGTVTFGQGTKVEIKR | 1.41 nM
